Assay [1] has as its target T1, Der f 1 (house dust mite, UniProt P16311 99-321).
T1 construct: Also used oligonucleotide-barcoded for cell staining
T1 sequence (looked up): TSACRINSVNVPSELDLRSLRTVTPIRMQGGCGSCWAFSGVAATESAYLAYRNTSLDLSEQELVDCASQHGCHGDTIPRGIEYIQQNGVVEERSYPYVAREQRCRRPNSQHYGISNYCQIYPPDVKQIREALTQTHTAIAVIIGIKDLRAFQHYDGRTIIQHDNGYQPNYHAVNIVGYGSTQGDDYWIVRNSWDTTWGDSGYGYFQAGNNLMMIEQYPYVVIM
The experiment in a line: barcoded antigen sequencing of single IgE PCs with trapped IgE.

The target in assay [2] is T2, Der p 1 (house dust mite, UniProt P08176 99-320).
T2 construct: Also used oligonucleotide-barcoded for cell staining; also called natural Der p 1
T2 sequence (looked up): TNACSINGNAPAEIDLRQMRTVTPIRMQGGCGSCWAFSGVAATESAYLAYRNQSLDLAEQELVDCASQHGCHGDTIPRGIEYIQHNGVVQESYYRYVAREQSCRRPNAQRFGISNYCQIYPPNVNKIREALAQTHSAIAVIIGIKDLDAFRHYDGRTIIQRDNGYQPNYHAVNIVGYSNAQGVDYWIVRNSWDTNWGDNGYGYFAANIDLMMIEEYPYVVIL
The assay is described as above.

Assay [3] has as its target T3, Der p 2 (house dust mite, UniProt P49278 18-146).
T3 construct: Also used oligonucleotide-barcoded for cell staining
T3 sequence (looked up): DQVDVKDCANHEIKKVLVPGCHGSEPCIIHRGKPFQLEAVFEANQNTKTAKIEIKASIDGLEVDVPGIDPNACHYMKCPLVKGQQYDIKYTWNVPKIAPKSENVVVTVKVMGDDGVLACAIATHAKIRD
The assay is described as above.

In assay [4] the target is T1, Der f 1. As to the kind of experiment: antigen specificity score against Ole e 1 from barcode counts of single IgE PCs [cont.]. The method, then:
(§1) Antigen specificity score (AgSS) for IgG were calculated by subtracting the quantile of hIL-6Rα barcoded UMI counts multiplied by a penalty factor (x) from the quantile of hIL-4Rα barcoded UMI counts, AgSS=Q_hIL-4Rα-Q_hIL-6Rα^x. AgSS for IgE were calculated with a similar formula for mouse and human single cell data. For IgE scores the target antigens were either Der p1, Der p2 or Der f1 and the control was always Ole e1.
(§2) Following processing of the three single-cell libraries, the gene expression and V(D)J region sequencing data were used to subset PCs with a valid IgE constant region and detectable expression of IgE and CD79a but lacking the expression of Ms4a1 and CD19 typically found in non-PC B cells. IgE-expressing PCs were then assessed for differential expression against additional IgA, IgG, and IgM plasma cell isotypes to further characterize the unique transcriptional signature of IgE-secreting PCs. IgE-secreting PCs were then assessed for antigen specificity by comparing the normalized levels of the target antigens, namely, Der p 1, Der p 2, or Der f 1, against the normalized level of the control antigen Ole e 1. This was performed by calculating an empirical score for each target antigen and subtracting the […] with a penalty factor. The formula used to do is set forth below: […]

Assay [5] deals with T2, Der p 1. The assay is described as above. Here is the method: as §1, §2
Assay [6] deals with T3, Der p 2. The assay is described as above. The method, then: as §1, §2
Assay [7] deals with T1, Der f 1. As to the kind of experiment: barcoded antigen sequencing of single IgE PCs with trapped IgE [cont.]. From the text:
(§3) The barcoded antigen library was mapped by the CellRanger software to a custom short-read reference that contained the DNA tag sequences of the four barcoded antigens, namely, Der p 1, Der p 2, Der f 1 and Ole e 1. These tag sequences were quantified across all cells and were normalized by taking the centered log-ratio (CLR) per barcoded antigen across each sample capture. In addition, background antigen signal for each barcoded antigen was removed by DSB (Denoised and Scaled by Background). Both the CLR and the DSB normalized values were used to quantify the target antigen signals, namely, those for Der p 1, Der p 2 and Der f 1, against the control signal, namely, that for Ole e 1.

Assay [8] deals with T2, Der p 1. The description is as above.
Excerpt: as §3

Assay [9] has as its target T3, Der p 2. Described as above.
Excerpt: as §3

Assay [10] addresses T1, Der f 1. As to the kind of experiment: ELISA, coated Der f1. Here is the method: (§4) After selecting allergen-specific antibodies, relative binding to Der p 1, Der p 2, and Der f 1 were quantified by ELISA. […] Specifically, binding microtiter plates were coated with 100 μl of 2 μg/mL of natural Der p 1, Der p 2, Der f 1, and Ole e 1 in PBS overnight at 4′C. IgE antibodies were prepared at a concentration of 1 μg/mL and serially diluted three-fold in PBS with 0.5% w/v BSA. After washing with 0.05% v/v Tween® 20 in PBS and blocking in PBS with 0.5% w/v BSA, 100 μl of the diluted IgE antibodies were transferred to the plates and incubated for one hour at ambient temperature. Subsequently, 100 μL of anti-mouse IgE antibody conjugated to horse-radish peroxidase (HRP) diluted at 1:5000 was added. The plates were then incubated for one hour at ambient temperature, and washed in 0.05% v/v/Tween® 20 in PBS. Subsequently, the HRP substrate 3,3′,5,5′-tetramethylbenzidine (TMB) was added. The reaction was stopped (with 100 μL of sulfuric acid 2.0 N) and optical density values determined using a plate reader at 450 nm.

The target of assay [11] is T1, Der f 1. As to the kind of experiment: centered log-ratio of barcode count.
Excerpt: as §3

In assay [12] the target is T3, Der p 2. As to the kind of experiment: centered log-ratio of barcode count.
Excerpt: as §3

Assay [13] has as its target T1, Der f 1. The experiment in a line: barcoded-antigen count on source cell.
Assay [14] addresses T3, Der p 2. As to the kind of experiment: barcoded-antigen count on source cell.
Assay [15] deals with T1, Der f 1. The experiment in a line: barcode rank score against control Ole e 1.
Assay [16] deals with T3, Der p 2. As to the kind of experiment: barcode rank score against control Ole e 1.
The target in assay [17] is T3, Der p 2. As to the kind of experiment: ELISA, coated Der p2. The method, then: as §4
For assay [18], the target named is T2, Der p 1. As to the kind of experiment: ELISA, coated Der p1. The method, then:
as §4

B1: Candidate ID 21 (antibody, V domains shown)
VH: QVQLQQSGPELVKPGASVKISCKAPGNAFSYSWMNWVKQRPGKGLEWVGRIYPGDGDTNYNGKFMGKATLTADKSSNTAYIQLSSLTSEDSAVYFCARSGGGTLYWYFDVWGTGTTVTVSS
VL: DIVMTQSPSSLALSVGQKVTMNCRSSQSLLNSFNQKNYLAWFQQKPGQSPRLLIYFASTRESGVPDRFIGSGSGTDFTLTISSVQAEDLADYFCQQHYNTPLTFGAGTTLELK
notes: IgE PCs LN
For the molecule B1, the entries for the “Raw Antigen Barcode Count” value in the assay with Der f 1 [1], with Der p 1 [2] and with Der p 2 [3] were 1, 2 and 215, respectively. In addition, the “Antigen Score” value with Der f 1 [4] was -0.386; in the assay with Der p 1 [5], -0.245; in the assay with Der p 2 [6] it was 0.412. Also, the “Normalized Barcode Count” value in the assay with Der f 1 [7] is -0.795; in the assay with Der p 1 [8], -0.398; in the assay with Der p 2 [9], 4.01.

B2: IgE mAb 12_2 (antibody, V domains shown)
VH: QAYLQQSGAELVRPGASVKMSCKASGYTFISYNMHWVKQTRRQGLEWIGAIYPGNGDTSYNQKFKGKATLTVDKSSSTAYMQLSSLTSEDSAVYFCARWDYYGSSYGAYWGQGTLVTVSA
VL: DIQMTQSPASLSVSVGETVTITCRASENIYSNLAWYQQKQGKSPQLLVYAATNLADGVPSRFSGSGSGTQYSLKINSLQSEDFGSYYCQHFWGTPWTFGGGTKLEIK
Turning to B2, the “EC50 (read off the curve)” value in the assay with Der f 1 [10], with Der p 2 [17] and with Der p 1 [18] was about 0.1 nM in each case. Also, the Derf1_ab_clr with Der f 1 [11] worked out at 1.74. For the same molecule, in the assay with Der p 2 [12], the Derp2_ab_clr is 0.00487. The molecule further gave a Derf1_ab_raw with Der f 1 [13] of 57 counts. In the assay with Der p 2 [14], this molecule displayed a Derp2_ab_raw of 11 counts. The molecule also yielded a Derf1_ab_rank in the assay with Der f 1 [15] of 0.973. The Derp2_ab_rank with Der p 2 [16] is 0.453.

B3: Candidate ID 13 (antibody, V domains shown)
VH: QAYLQQSGAELVRPGASVKMSCKASGYTFISYNMHWVKQTRRQGLEWIGAIYPGNGDTSYNQKFKGKATLTVDKSSSTAYMQLSSLTSEDSAVYFCARWDYYGSSYGAYWGQGTLVTVSA
VL: DIQMTQSPASLSVSVGETVTITCRASENIYSNLAWYQQKQGKSPQLLVYAATNLADGVPSRFSGSGSGTQYSLKINSLQSEDFGSYYCQHFWGTPWTFGGGTKLEIK
Turning to B3, the “Raw Antigen Barcode Count” value in the assay with Der f 1 [1] worked out at 57; in the assay with Der p 1 [2], 15; in the assay with Der p 2 [3], 11. The “Antigen Score” value is 0.973 with Der f 1 [4], 0.637 in the assay with Der p 1 [5] and 0.453 in the assay with Der p 2 [6]. For the same molecule, the results for the “Normalized Barcode Count” value in the assay with Der f 1 [7], in the assay with Der p 1 [8] and with Der p 2 [9] were 1.74, 0.233 and 0.005, respectively.

The record behind these values is US20230349919A1 (Regeneron, published 2023).
